± gives the standard deviation of the averaged measurements.
Test system: Saccharomyces cerevisiae
Assay: protein stability index of tFT-peptide fusion (C-terminal peptide) (PSI (0-1 scale)); higher = more stable (slower turnover)
Conditions: temperature: 30 C
Procedure: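 MPS profiling in S. cerevisiae of the yeast C-terminome library: the last 12 aa of each annotated ORF are fused to the C-terminus of a sfGFP-mCherry timer, after a GGGS linker. Cells are FACS-sorted into 8 mCherry/sfGFP bins and deep-sequenced. PSI runs from 0 (unstable) to 1 (stable); wild type and das1Δ backgrounds, two technical replicates each.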

[1] = genetic background: das1 deletion

Sequence: IGPLAFLVFKTA [DYN2 C-terminal 12 aa]
- protein stability index [1]: 0.67 ± 0.02
- protein stability index (genetic background: wild type): 0.18 ± 0.011

Sequence: IHENEESNENEG [RQC1 C-terminal 12 aa]
- protein stability index [1]: 0.702 ± 0.0099
- protein stability index (genetic background: wild type): 0.663 ± 0.011

Sequence: IHYLLHIERERK [YOR385W C-terminal 12 aa]
- protein stability index [1]: 0.683 ± 0.037
- protein stability index (genetic background: wild type): 0.681 ± 0.014

Sequence: IIRSEKKKKEEQ [YBR292C C-terminal 12 aa]
- protein stability index [1]: 0.748 ± 0.041
- protein stability index (genetic background: wild type): 0.659 ± 0.039

Sequence: IKETIQRLTDDR [GMC2 C-terminal 12 aa]
- protein stability index [1]: 0.661 ± 0.018
- protein stability index (genetic background: wild type): 0.676 ± 0.015

Sequence: IKIRIYSPRSIS [YDL240C-A C-terminal 12 aa]
- protein stability index [1]: 0.715 ± 0.017
- protein stability index (genetic background: wild type): 0.519 ± 0.021

Sequence: IKKYNITSPFLD [NSE4 C-terminal 12 aa]
- protein stability index [1]: 0.696 ± 0.022
- protein stability index (genetic background: wild type): 0.686 ± 0.004

Sequence: IKRRSNVGVVML [NMT1 C-terminal 12 aa]
- protein stability index [1]: 0.6647 ± 0.003
- protein stability index (genetic background: wild type): 0.6363 ± 0.0032

Sequence: IKSVHVDLSLDK [ALD3 C-terminal 12 aa]
- protein stability index [1]: 0.717 ± 0.022
- protein stability index (genetic background: wild type): 0.704 ± 0.043

Sequence: ILHERNIPLEKI [TPT1 C-terminal 12 aa]
- protein stability index [1]: 0.709 ± 0.021
- protein stability index (genetic background: wild type): 0.701 ± 0.048

Sequence: ILIRKKLKAENI [OPY1 C-terminal 12 aa]
- protein stability index [1]: 0.677 ± 0.021
- protein stability index (genetic background: wild type): 0.646 ± 0.053

Sequence: ILLHLEYAAAYS [STN1 C-terminal 12 aa]
- protein stability index [1]: 0.521 ± 0.033
- protein stability index (genetic background: wild type): 0.552 ± 0.02

Sequence: INILPVRKKKKV [SAS4 C-terminal 12 aa]
- protein stability index [1]: 0.705 ± 0.024
- protein stability index (genetic background: wild type): 0.685 ± 0.036

Sequence: INKASVKFFFFA [YJL119C C-terminal 12 aa]
- protein stability index [1]: 0.637 ± 0.0095
- protein stability index (genetic background: wild type): 0.227 ± 0.0039

Sequence: INNTDITLYNDV [YPL068C C-terminal 12 aa]
- protein stability index [1]: 0.707 ± 0.019
- protein stability index (genetic background: wild type): 0.696 ± 0.056

Sequence: IQELVNTIRELQ [YPL077C C-terminal 12 aa]
- protein stability index [1]: 0.69 ± 0.018
- protein stability index (genetic background: wild type): 0.642 ± 0.0078

Sequence: IQISDVSMSPSL [PEX31 C-terminal 12 aa]
- protein stability index [1]: 0.6811 ± 0.00011
- protein stability index (genetic background: wild type): 0.717 ± 0.019

Sequence: IQKDSMVHPGKK [VAC7 C-terminal 12 aa]
- protein stability index [1]: 0.6694 ± 0.0052
- protein stability index (genetic background: wild type): 0.663 ± 0.034

Sequence: IQQTNSFLREII [YDL211C C-terminal 12 aa]
- protein stability index [1]: 0.692 ± 0.0098
- protein stability index (genetic background: wild type): 0.7056 ± 0.0041

Sequence: IRLLTYLLRKIE [YLR230W C-terminal 12 aa]
- protein stability index [1]: 0.654 ± 0.033
- protein stability index (genetic background: wild type): 0.351 ± 0.023

Sequence: ISFDLCGKQNFQ [MTC7 C-terminal 12 aa]
- protein stability index [1]: 0.705 ± 0.056
- protein stability index (genetic background: wild type): 0.719 ± 0.044

Sequence: ISIALEGHTLFL [PDE1 C-terminal 12 aa]
- protein stability index [1]: 0.715 ± 0.02
- protein stability index (genetic background: wild type): 0.70608 ± 0.00038

Sequence: ISIEELAQYLKK [RIB3 C-terminal 12 aa]
- protein stability index [1]: 0.70628 ± 0.00065
- protein stability index (genetic background: wild type): 0.672 ± 0.049

Sequence: ISKLKGISKPSP [MDS3 C-terminal 12 aa]
- protein stability index [1]: 0.682 ± 0.014
- protein stability index (genetic background: wild type): 0.687 ± 0.023

Sequence: ISNLPECLGNLC [ANR2 C-terminal 12 aa]
- protein stability index [1]: 0.6968 ± 0.0047
- protein stability index (genetic background: wild type): 0.6926 ± 0.006

Sequence: ITKSSNKFVNNV [YNL043C C-terminal 12 aa]
- protein stability index [1]: 0.665 ± 0.022
- protein stability index (genetic background: wild type): 0.736 ± 0.091

Sequence: ITLESGSYKFQD [SRP40 C-terminal 12 aa]
- protein stability index [1]: 0.695 ± 0.025
- protein stability index (genetic background: wild type): 0.639 ± 0.0026

Sequence: ITSKRKAELLLK [DIS3 C-terminal 12 aa]
- protein stability index [1]: 0.723 ± 0.062
- protein stability index (genetic background: wild type): 0.7544 ± 0.007

Sequence: IVRPLELKYFGR [FCY22 C-terminal 12 aa]
- protein stability index [1]: 0.7236 ± 0.0033
- protein stability index (genetic background: wild type): 0.688 ± 0.04

Sequence: IWVVDSLGSLVG [YPL142C C-terminal 12 aa]
- protein stability index [1]: 0.6847 ± 0.00084
- protein stability index (genetic background: wild type): 0.699 ± 0.037

Sequence: IYIQTPINDFKS [SLM1 C-terminal 12 aa]
- protein stability index [1]: 0.705 ± 0.031
- protein stability index (genetic background: wild type): 0.678 ± 0.013

Sequence: IYKEKYMKQGPK [DSF2 C-terminal 12 aa]
- protein stability index [1]: 0.701 ± 0.071
- protein stability index (genetic background: wild type): 0.701 ± 0.084

Sequence: IYYMEQMLGKTQ [HSK3 C-terminal 12 aa]
- protein stability index [1]: 0.696 ± 0.038
- protein stability index (genetic background: wild type): 0.696 ± 0.024

Sequence: KALNEIFMITND [PXR1 C-terminal 12 aa]
- protein stability index [1]: 0.723 ± 0.013
- protein stability index (genetic background: wild type): 0.763 ± 0.033

Sequence: KAPKSPEVIEID [UFD1 C-terminal 12 aa]
- protein stability index [1]: 0.6978 ± 0.0035
- protein stability index (genetic background: wild type): 0.684 ± 0.027

Sequence: KARPFKCSDKKQ [MZM1 C-terminal 12 aa]
- protein stability index [1]: 0.718 ± 0.016
- protein stability index (genetic background: wild type): 0.72792 ± 0.00048

Sequence: KDEPVKAHNKLK [SAS5 C-terminal 12 aa]
- protein stability index [1]: 0.693 ± 0.011
- protein stability index (genetic background: wild type): 0.654 ± 0.023

Sequence: KDETPEDNLEDK [VBA3 C-terminal 12 aa]
- protein stability index [1]: 0.6896 ± 0.00088
- protein stability index (genetic background: wild type): 0.653 ± 0.017

Sequence: KDNNISSYGSII [YPL162C C-terminal 12 aa]
- protein stability index [1]: 0.693 ± 0.037
- protein stability index (genetic background: wild type): 0.668 ± 0.011

Sequence: KEANPIKITPQP [MDL2 C-terminal 12 aa]
- protein stability index [1]: 0.682 ± 0.009
- protein stability index (genetic background: wild type): 0.708 ± 0.0083

Sequence: KELEPVPPVSKS [OMS1 C-terminal 12 aa]
- protein stability index [1]: 0.7006 ± 0.007
- protein stability index (genetic background: wild type): 0.671 ± 0.01

Source: the supplement of paper PMC10724198
